The record followed here is patent publication US20230121197A1, “ANTIBODIES SPECIFICALLY BINDING THE CARBOXYMETHYLATED CATALYTIC SUBUNIT OF PROTEIN PHOSPHATASE 2A” (Medizinische Universität Wien, priority 2020, published 2023).

For assay [1], the target named is T1, HA-PP4c (Mus musculus, UniProt P97470).
T1 construct: expressed in transfected cells; host or cells: NIH3T3 mouse fibroblasts, retroviral pBabe hygro HA-PP4c
T1 sequence (P97470 1-307): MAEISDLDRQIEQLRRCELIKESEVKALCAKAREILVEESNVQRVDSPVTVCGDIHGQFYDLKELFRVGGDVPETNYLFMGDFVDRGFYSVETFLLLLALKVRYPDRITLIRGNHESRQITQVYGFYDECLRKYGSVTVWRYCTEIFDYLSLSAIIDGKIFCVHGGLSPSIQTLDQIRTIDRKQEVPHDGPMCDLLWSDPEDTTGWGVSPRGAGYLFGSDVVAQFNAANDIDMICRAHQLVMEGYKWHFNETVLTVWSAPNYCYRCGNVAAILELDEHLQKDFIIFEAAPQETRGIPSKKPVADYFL
The assay can be described thus: Immunoblotting of anti-HA immunoprecipitates of NIH3T3 cells, PP4c. The assay is classed as binding. The text has this: The catalytic subunits of protein phosphatase 4 (PP4c) and 6 (PP6c) are closely related to PP2Ac with approximately 50% sequence identity. PP2Ac, PP4c and PP6c share the C-terminal DYFL or YFL motif, respectively (FIG. 8A). Therefore, a potential cross-reactivity of 7C10-C5 with α-carboxymethylated PP4c and/or PP6c was examined and compared to another anti-carboxymethyl-PP2Ac antibody 2A10. 2A10 is a carboxymethyl-PP2Ac specific antibody that has been raised against a larger C-terminal PP2Ac peptide (amino acids 302-309, carboxymethylated Leu^309) and that has been shown before to cross-react with α-carboxymethylated PP4c (Lee (2014), Biochem Biophys Res Commun 452, 42-47). HA tagged human PP2Ac a, mouse HA PP4c or mouse HA PP6c from NIH3T3 mouse fibroblasts stably expressing these HA-tagged proteins were immunoprecipitated. The precipitated proteins were then analyzed by immunoblotting with anti-carboxymethyl-PP2Ac antibodies 7C10-C5 or 2A10.
Specifically, 500 μl corresponding to 1 mg of whole cell protein lysates of NIH3T3 mouse fibroblasts were incubated with anti-hemagglutinin (HA) antibody (clone 12CA5) crosslinked to BSA-coated protein A-Sepharose beads (GE-Healthcare) to immunoprecipitate HA-epitope tagged PP2Ac, PP4c or PP6c for 1 h. […]

Assay [2] deals with α-carboxymethylated PP2Ac (Homo sapiens, UniProt P67775). Put plainly: IHC specificity validation (NaOH treatment of slides). Conditions: slides incubated in 200 mM NaOH. More on the design: NaOH treatment to chemically remove the methyl group from the methylated PP2A-C; from tissue; host or cells: de-paraffinized tissue slides. How it is done:
Immunohistochemical staining was performed on the DAKO Autostainer (DAKO, Carpinteria, Calif.) using Envision+ or liquid streptavidin-biotin and diaminobenzadine (DAB) as the chromogen. De-paraffinized sections were labeled with mouse monoclonal antibody 7C10-C5 (1:200) overnight at 4 C. Microwave 10 mM Tris HCl, pH9 containing 1 mM EDTA epitope retrieval was used prior to staining. Appropriate negative (no primary antibody) and positive controls (pancreas) were stained in parallel with each set of slides studied. Peptide competition studies were performed using 2 peptides ([…]*) (SEQ ID NO:115) differing in the methylation status at position L (marked with a *); FIG. 13E: Peptides were incubated at ambient temperature for 60 mins at 10-1000× molar ratios before being applied to the slide. FIG. 13F: Before being stained, slides were incubated in freshly made 200 mM NaOH for 10 mins at 4° C. and then neutralized by several washes in TBST.
Stained slides were scanned using an APERIO AT2 (Leica) and the digital images imported into QuPath (Bankhead et al., 2017). TMA cores were analyzed for percentage of cells staining and intensity. In FIGS. 13E and F, higher visibility of the dark cell nuclei indicates weaker α-carboxymethylated PP2Ac staining.

Assay [3] addresses T2, C(βA)TPDYFL-CH3 peptide (carboxymethylated PP2Ac C-terminus) (Homo sapiens, UniProt P67775).
T2 construct: purchased PiChem GmbH (Graz, Austria)
The assay can be described thus: ELISA screening of hybridoma supernatants with C(βA)TPDYFL peptides. Type of assay: binding. As to conditions: undiluted supernatants, peptides at 3 μg/ml. How it is done:
In parallel to the immunoblotting screening, hybridoma supernatants were tested for the presence of TPDYFL-CH3 (SEQ ID NO:1) specific IgG antibodies by ELISA. Specifically, flat-bottom Nunc-Immuno Medisorp 96-well ELISA plates (Thermo; 467320) were coated over night at 4° C. with 50 μl of either a peptide of the sequence C(βA)TPDYFL (SEQ ID NO:48) at a concentration of 3 μg/ml in 10 mM sodium phosphate buffer pH 7.0 or with a peptide of the sequence C(βA)TPDYFL-CH3 (SEQ ID NO:48) at a concentration of 3 μg/ml in 10 mM sodium phosphate buffer pH 7.0. The wells were washed once with PBS, blocked with 180 μl of 2% bovine serum albumin (Sigma, A9647) in PBS for 1 hour at RT and washed again once with PBS. […] Bound antibodies were detected colorimetrically by addition of 50 μl of 33 μg/ml […] (TMB) (Sigma, T2885) in 0.1 M sodium acetate pH 6.0 and 0.01% H2O2 (Sigma, H1009). The colorimetric reaction was stopped after 28 min by addition of 50 μl 0.5 M H2SO4, and absorbance was measured at 450 nm with a Perkin Elmer Wallac Victor 2 1420 Multilabel Counter.
(An ELISA detects its analyte on a solid surface through an enzyme-linked reagent.)

Sequence of α-carboxymethylated PP2Ac (P67775 whole entry): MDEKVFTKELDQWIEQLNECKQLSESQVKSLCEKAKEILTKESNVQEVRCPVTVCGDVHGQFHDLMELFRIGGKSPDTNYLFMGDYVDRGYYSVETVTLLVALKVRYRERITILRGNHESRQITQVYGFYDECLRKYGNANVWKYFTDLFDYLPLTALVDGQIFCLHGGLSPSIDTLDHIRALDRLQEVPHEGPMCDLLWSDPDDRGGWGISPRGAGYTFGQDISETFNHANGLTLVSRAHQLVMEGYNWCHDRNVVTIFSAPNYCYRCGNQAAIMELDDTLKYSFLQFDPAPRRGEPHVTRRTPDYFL

B1: 7C10-C5: α-carboxymethylation specific mouse monoclonal IgG1 antibody from single clone hybridoma 7C10-C5 (DSM ACC3350) (antibody)
heavy: MYRMQLLSCIALSLALVTNSDVQLQESGPGLVKPSQSLSLTCSVTGYSITSGYYWNWIRQFPGNKLEWMGYISYDGSNNYNPSLKNRISITRDTSKNQFFLKLNSVTTEDTATYYCAGRFAYWGQGTLVTVSAAKTTAPSVYPLAPVCGDTTGSSVTLGCLVKGYFPEPVTLTWNSGSLSSGVHTFPAVLQSDLYTLSSSVTVTSSTWPSQSITCNVAHPASSTKVDKKIEPRGPTIKPCPPCKCPAPNLLGGPSVFIFPPKIKDVLMISLSPIVTCVVVDVSEDDPDVQISWFVNNVEVHTAQTQTHREDYNSTLRVVSALPIQHQDWMSGKEFKCKVNNKDLPAPIERTISKPKGSVRAPQVYVLPPPEEEMTKKQVTLTCMVTDFMPEDIYVEWTNNGKTELNYKNTEPVLDSDGSYFMYSKLRVEKKNWVERNSYSCSVVHEGLHNHHTTKSFSRTPGK
light: MDMRVPAQLLGLLLLWLSGARCDVLMTQTPLSLPVSLGDQASISCRSSQSIVHSNGNTYLEWYLQKPGQSPKLLIYKVSNRFSGVPDRFSGSGSGTDFTLKINRVEAEDLGVYYCFQGSHVPWTFGGGTKLEIKADAAPTVSIFPPSSEQLTSGGASVVCFLNNFYPKDINVKWKIDGSERQNGVLNSWTDQDSKDSTYSMSSTLTLTKDEYERHNSYTCEATHKTSTSPIVKSFNRNEC
modifications: Amino acid sequence of the recombinant 7C10-C5 heavy chain; Amino acid sequence of the recombinant 7C10-C5 light chain
B1: in assay [1] (Western blot of HA immunoprecipitates), the “detection of PP4c” value is “did not detect”. The “binding to carboxymethylated PP2Ac stronger than to carboxymethylated PP4c” value in assay [1] (Western blot, suggested since no discernable signal) was 100-fold or even 500-fold. In addition, the “IHC staining after chemical removal of the methyl group” value in assay [2] is reported as “diminished staining upon treatment with NaOH”.

B2: 7C10-C5 monoclonal antibody (antibody, V domains shown)
VH: DVQLQESGPGLVKPSQSLSLTCSVTGYSITSGYYWNWIRQFPGNKLEWMGYISYDGSNNYNPSLKNRISITRDTSKNQFFLKLNSVTTEDTATYYCAGRFAYWGQGTLVTVSA
VL: DVLMTQTPLSLPVSLGDQASISCRSSQSIVHSNGNTYLEWYLQKPGQSPKLLIYKVSNRFSGVPDRFSGSGSGTDFTLKINRVEAEDLGVYYCFQGSHVPWTFGGGTKLEIK
notes: Used as hybridoma culture supernatant (ELISA, Western blot, IHC) or at 50 µg/mL (SPR); also called 7C10 X63; clone 7C10-C5
On to B2, for which the “detection of carboxymethylated versus non-carboxymethylated peptide” value in assay [3] is recorded as “detected the carboxymethylated peptide”.
